From publication doi:10.1101/589580 (bioRxiv, 2019)
No end group written: not given here.

B1: cingulin (natural protein, UniProt Q9P2M7 1-1203, looked up)
chain: MEQAPNMAEPRGPVDHGVQIRFITEPVSGAEMGTLRRGGRRPAKDARASTYGVAVRVQGIAGQPFVVLNSGEKGGDSFGVQIKGANDQGASGALSSDLELPENPYSQVKGFPAPSQSSTSDEEPGAYWNGKLLRSHSQASLAGPGPVDPSNRSNSMLELAPKVASPGSTIDTAPLSSVDSLINKFDSQLGGQARGRTGRRTRMLPPEQRKRSKSLDSRLPRDTFEERERQSTNHWTSSTKYDNHVGTSKQPAQSQNLSPLSGFSRSRQTQDWVLQSFEEPRRSAQDPTMLQFKSTPDLLRDQQEAAPPGSVDHMKATIYGILREGSSESETSVRRKVSLVLEKMQPLVMVSSGSTKAVAGQGELTRKVEELQRKLDEEVKKRQKLEPSQVGLERQLEEKTEECSRLQELLERRKGEAQQSNKELQNMKRLLDQGEDLRHGLETQVMELQNKLKHVQGPEPAKEVLLKDLLETRELLEEVLEGKQRVEEQLRLRERELTALKGALKEEVASRDQEVEHVRQQYQRDTEQLRRSMQDATQDHAVLEAERQKMSALVRGLQRELEETSEETGHWQSMFQKNKEDLRATKQELLQLRMEKEEMEEELGEKIEVLQRELEQARASAGDTRQVEVLKKELLRTQEELKELQAERQSQEVAGRHRDRELEKQLAVLRVEADRGRELEEQNLQLQKTLQQLRQDCEEASKAKMVAEAEATVLGQRRAAVETTLRETQEENDEFRRRILGLEQQLKETRGLVDGGEAVEARLRDKLQRLEAEKQQLEEALNASQEEEGSLAAAKRALEARLEEAQRGLARLGQEQQTLNRALEEEGKQREVLRRGKAELEEQKRLLDRTVDRLNKELEKIGEDSKQALQQLQAQLEDYKEKARREVADAQRQAKDWASEAEKTSGGLSRLQDEIQRLRQALQASQAERDTARLDKELLAQRLQGLEQEAENKKRSQDDRARQLKGLEEKVSRLETELDEEKNTVELLTDRVNRGRDQVDQLRTELMQERSARQDLECDKISLERQNKDLKTRLASSEGFQKPSASLSQLESQNQLLQERLQAEEREKTVLQSTNRKLERKVKELSIQIEDERQHVNDQKDQLSLRVKALKRQVDEAEEEIERLDGLRKKAQREVEEQHEVNEQLQARIKSLEKDSWRKASRSAAESALKNEGLSSDEEFDSVYDPSSIASLLTESNLQTSSC
B2: endogenous ZO2 with N-terminal mNeonGreen (CRISPR knock-in, MDCK-II) (natural protein, dog (endogenous in MDCK-II), UniProt Q95168 1-1174, looked up)
chain: MEELIWEQYTVTLQKDSKRGFGIAVSGGRDNPHFENGETSIVISDVLPGGPADGLLQENDRVVMVNGTPMEDVLHSFAVQQLRKSGKIAAIVVKRPRKVQLAPPQGSLPVDEDDRAFEVMDEFDGRSARSGYSERSRRSSHGGRSRSWEDSPERGRPHERAWSQERERSRGRSLERGLDHDDDYRRPRERSRGRSLERGLDHDDDYGRPGERSHGMSTDRGYDRGYDRGYDRGYDRTYSPEAEYGRRTQPDARHAGSRSRSREHLRSRSPSPELRGRPDHAGQPDSDRPIGVLLMKSKANEEYGLRLGSQIFIKQMTRTALATKDGNLHEGDIILKINGTVTENMSLTDARKLIEKSRGKLQLVVLRDSKQTLINIPSLNDSDSEIEDISEIESNRSFSPEERRQQYSDYDYHSSNEKLKERPNSREDMQNRWSRMGATPTPFKSMGDIASVVGTENSKEPRYQEEPPAPQPKAAPRTFLRPSPEDEAIYGPNTKMVRFKKGDSVGLRLAGGNDVGIFVAGIQEGTSAEQEGLQEGDQILKVNTQDFRGLVREDAVLYLLEIPKGEMVTILAQSRADVYRDILACGRGDSFFIRSHFECEKETPQSLAFSRGEVFRVVDTLYDGKLGHWLAVRIGNELEKGLIPNKSRAEQMASVQNAQRDNAGDRADFWRMRGQRSGMKKNLRKSREDLTAAVSVSTKFPAYERVLLREAGFKRPVVLFGPIADIALEKLANELPDLFQTAKTEPKDAGSEKSSGVVRLNTVRQIIEQDKHALLDVTPKAVDLLNYTQWFPIVIFFNPDSRQGVKTMRQRLNPTSNKSSRKLYDQANKLKKTCAHLFTATINLNSANDSWFGSLKDTIQHQQGEAVWVSEGKMEGMDDDPEDRMSYLTAMGADYLSCDSRLISDFEDTDGEGGAYTDNELDEPAEEPLVSSITRSSEPVQHEESIRKPSPEPRAQMRRAASRDQLRDSSPPPAFKPEPPKAKTQNREESFDISRSHDYKSNPSAVAGNEVSGASTRSCPPPIAAKPSFGRSILKPSTPVPSPESEEVGEGSEEQEGAPKSVLGKVKIFEKMDHKARLQRMQELQEAQNARIEIAQKHPDIYAVPIKTHKPDPGLSQHTSSRPPEPQKGPSRLYQDPRGSYGSDAEEEEYRQQLSEHSKRGYYSQPSRYRDTEL
B3: afadin (natural protein, UniProt P55196 1-1824, looked up)
chain: MSAGGRDEERRKLADIIHHWNANRLDLFEISQPTEDLEFHGVMRFYFQDKAAGNFATKCIRVSSTATTQDVIETLAEKFRPDMRMLSSPKYSLYEVHVSGERRLDIDEKPLVVQLNWNKDDREGRFVLKNENDAIPPKKAQSNGPEKQEKEGVIQNFKRTLSKKEKKEKKKREKEALRQASDKDDRPFQGEDVENSRLAAEVYKDMPETSFTRTISNPEVVMKRRRQQKLEKRMQEFRSSDGRPDSGGTLRIYADSLKPNIPYKTILLSTTDPADFAVAEALEKYGLEKENPKDYCIARVMLPPGAQHSDEKGAKEIILDDDECPLQIFREWPSDKGILVFQLKRRPPDHIPKKTKKHLEGKTPKGKERADGSGYGSTLPPEKLPYLVELSPGRRNHFAYYNYHTYEDGSDSRDKPKLYRLQLSVTEVGTEKLDDNSIQLFGPGIQPHHCDLTNMDGVVTVTPRSMDAETYVEGQRISETTMLQSGMKVQFGASHVFKFVDPSQDHALAKRSVDGGLMVKGPRHKPGIVQETTFDLGGDIHSGTALPTSKSTTRLDSDRVSSASSTAERGMVKPMIRVEQQPDYRRQESRTQDASGPELILPASIEFRESSEDSFLSAIINYTNSSTVHFKLSPTYVLYMACRYVLSNQYRPDISPTERTHKVIAVVNKMVSMMEGVIQKQKNIAGALAFWMANASELLNFIKQDRDLSRITLDAQDVLAHLVQMAFKYLVHCLQSELNNYMPAFLDDPEENSLQRPKIDDVLHTLTGAMSLLRRCRVNAALTIQLFSQLFHFINMWLFNRLVTDPDSGLCSHYWGAIIRQQLGHIEAWAEKQGLELAADCHLSRIVQATTLLTMDKYAPDDIPNINSTCFKLNSLQLQALLQNYHCAPDEPFIPTDLIENVVTVAENTADELARSDGREVQLEEDPDLQLPFLLPEDGYSCDVVRNIPNGLQEFLDPLCQRGFCRLIPHTRSPGTWTIYFEGADYESHLLRENTELAQPLRKEPEIITVTLKKQNGMGLSIVAAKGAGQDKLGIYVKSVVKGGAADVDGRLAAGDQLLSVDGRSLVGLSQERAAELMTRTSSVVTLEVAKQGAIYHGLATLLNQPSPMMQRISDRRGSGKPRPKSEGFELYNNSTQNGSPESPQLPWAEYSEPKKLPGDDRLMKNRADHRSSPNVANQPPSPGGKSAYASGTTAKITSVSTGNLCTEEQTPPPRPEAYPIPTQTYTREYFTFPASKSQDRMAPPQNQWPNYEEKPHMHTDSNHSSIAIQRVTRSQEELREDKAYQLERHRIEAAMDRKSDSDMWINQSSSLDSSTSSQEHLNHSSKSVTPASTLTKSGPGRWKTPAAIPATPVAVSQPIRTDLPPPPPPPPVHYAGDFDGMSMDLPLPPPPSANQIGLPSAQVAAAERRKREEHQRWYEKEKARLEEERERKRREQERKLGQMRTQSLNPAPFSPLTAQQMKPEKPSTLQRPQETVIRELQPQQQPRTIERRDLQYITVSKEELSSGDSLSPDPWKRDAKEKLEKQQQMHIVDMLSKEIQELQSKPDRSAEESDRLRKLMLEWQFQKRLQESKQKDEDDEEEEDDDVDTMLIMQRLEAERRARLQDEERRRQQQLEEMRKREAEDRARQEEERRRQEEERTKRDAEEKRRQEEGYYSRLEAERRRQHDEAARRLLEPEAPGLCRPPLPRDYEPPSPSPAPGAPPPPPQRNASYLKTQVLSPDSLFTAKFVAYNEEEEEEDCSLAGPNSYPGSTGAAVGAHDACRDAKEKRSKSQDADSPGSSGAPENLTFKERQRLFSQGQDVSNKVKASRKLTELENELNTK
B4: transcription factor ZONAB (natural protein)
chain: not shown

What was measured:
[1] = target: full-length ZO1 with C-terminal mEGFP (UniProt Q07157 1-1748); experiment: client partitioning into phase-separated droplets
full-length ZO1 with C-terminal mEGFP, sequence (Q07157 whole entry): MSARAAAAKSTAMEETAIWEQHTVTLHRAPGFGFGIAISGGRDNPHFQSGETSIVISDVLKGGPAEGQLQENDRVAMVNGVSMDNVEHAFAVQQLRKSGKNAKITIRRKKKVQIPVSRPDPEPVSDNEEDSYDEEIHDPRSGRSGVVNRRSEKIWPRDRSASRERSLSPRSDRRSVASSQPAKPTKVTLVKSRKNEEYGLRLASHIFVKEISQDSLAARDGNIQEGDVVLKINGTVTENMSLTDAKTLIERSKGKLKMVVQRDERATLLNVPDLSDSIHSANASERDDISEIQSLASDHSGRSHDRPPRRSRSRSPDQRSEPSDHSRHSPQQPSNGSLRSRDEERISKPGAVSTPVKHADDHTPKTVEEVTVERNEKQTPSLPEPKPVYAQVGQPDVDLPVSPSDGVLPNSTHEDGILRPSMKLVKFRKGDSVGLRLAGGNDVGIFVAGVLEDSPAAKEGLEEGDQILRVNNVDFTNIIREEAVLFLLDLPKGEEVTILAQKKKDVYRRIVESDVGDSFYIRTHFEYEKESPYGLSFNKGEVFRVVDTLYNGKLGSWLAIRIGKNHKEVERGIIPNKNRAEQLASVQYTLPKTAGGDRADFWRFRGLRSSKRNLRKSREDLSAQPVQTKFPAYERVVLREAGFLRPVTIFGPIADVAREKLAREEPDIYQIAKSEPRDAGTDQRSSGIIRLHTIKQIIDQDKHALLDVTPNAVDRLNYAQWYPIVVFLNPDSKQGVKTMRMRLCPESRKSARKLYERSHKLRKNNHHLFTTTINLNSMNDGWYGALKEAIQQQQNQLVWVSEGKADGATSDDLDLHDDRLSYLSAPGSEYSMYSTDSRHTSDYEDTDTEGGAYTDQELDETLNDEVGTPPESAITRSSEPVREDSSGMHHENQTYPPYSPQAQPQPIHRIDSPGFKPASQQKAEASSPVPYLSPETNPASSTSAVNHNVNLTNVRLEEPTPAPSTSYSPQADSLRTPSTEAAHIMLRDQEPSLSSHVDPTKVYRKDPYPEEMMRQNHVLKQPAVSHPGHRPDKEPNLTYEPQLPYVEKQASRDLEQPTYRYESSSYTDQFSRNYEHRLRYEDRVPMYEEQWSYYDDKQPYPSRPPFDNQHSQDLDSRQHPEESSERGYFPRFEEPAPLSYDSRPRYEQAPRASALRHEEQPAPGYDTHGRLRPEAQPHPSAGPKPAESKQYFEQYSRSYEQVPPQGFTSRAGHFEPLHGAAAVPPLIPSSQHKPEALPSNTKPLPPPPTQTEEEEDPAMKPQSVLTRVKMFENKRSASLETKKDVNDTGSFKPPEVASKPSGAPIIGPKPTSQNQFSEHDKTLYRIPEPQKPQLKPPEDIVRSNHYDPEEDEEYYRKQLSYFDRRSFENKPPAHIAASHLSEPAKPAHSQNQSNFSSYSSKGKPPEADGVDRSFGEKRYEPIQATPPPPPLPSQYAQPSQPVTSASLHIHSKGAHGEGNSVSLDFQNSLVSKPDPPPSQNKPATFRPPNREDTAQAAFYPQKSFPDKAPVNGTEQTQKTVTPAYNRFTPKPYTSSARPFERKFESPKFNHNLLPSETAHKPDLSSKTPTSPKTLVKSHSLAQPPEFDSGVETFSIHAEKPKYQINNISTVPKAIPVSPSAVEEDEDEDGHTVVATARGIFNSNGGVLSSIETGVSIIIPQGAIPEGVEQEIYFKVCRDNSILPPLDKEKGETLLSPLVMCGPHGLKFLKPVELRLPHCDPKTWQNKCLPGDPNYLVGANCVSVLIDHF

[2] = target: the molecule itself; experiment: FCS molecular brightness

Row | Binder | partitioning (client fluorescence inside/outside ZO1 droplets) [1] [fold] | stoichiometry N [2]
1 | B1 | 25 | 
2 | B2 |  | 1.5
3 | SCPRKTTSYPTPRPYPKPAPSSGKDYV (also: CoA-DY647 on YBBR-tag, labelled with PPTase Sfp, tag not in given chain) [C-terminal tail of claudin-1] | 44 | 
4 | B3 | 28 | 
5 | B4 | 20 | 
